Laboratory results published in the supplement of paper PMC9170038.

Tests used:
[1] = tested on: MS2 coat protein; test: apparent KD of MS2 coat protein, switch ON state; designed switch direction (-1 OFF switch, 1 ON switch): -1; higher = weaker reporter binding; conditions: FMN input: 0 or 200 uM; Eterna round: R93 (includes R88 designs)
Procedure, shortened: (§1)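 On-chip transcription from Illumina sequencing clusters produced the designed RNA switches. These were titrated with SNAP-549-labelled MS2 coat protein (twofold steps, 0.7 or 1.5 nM to 3 µM) in 100 mM Tris-HCl pH 7.5, 80 mM KCl, 4 mM MgCl2, with or without constant ligand. The apparent KD given is the per-design median of normalised cluster binding-curve fits.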

[2] = tested on: MS2 coat protein; test: apparent KD of MS2 coat protein, switch OFF state (with FMN for OFF switches, without FMN for ON switches); designed switch direction (-1 OFF switch, 1 ON switch): -1; higher = weaker reporter binding; conditions: FMN input: 0 or 200 uM; Eterna round: R93 (includes R88 designs)
Procedure, shortened: as §1

[3] = tested on: MS2 coat protein; test: apparent KD of MS2 coat protein; designed switch direction (-1 OFF switch, 1 ON switch): 1; higher = weaker reporter binding
Procedure, shortened: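 Three titration conditions were used: no input, 200 uM small-molecule ligand, and an oligonucleotide input. In each, SNAP-549-labelled MS2 coat protein was raised from 0.7 or 1.5 nM, doubling, to 3 µM over designed RNA switches transcribed on Illumina chips by stalled E. coli RNA polymerase. Curve fits of normalised cluster fluorescence gave values whose per-design median over clusters is the apparent KD.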

Sequence | apparent KD of MS2 coat protein [1] | apparent KD of MS2 coat protein [2] | apparent KD of MS2 coat protein ([3]; input ligand: FMN 200 uM) | apparent KD of MS2 coat protein ([3]; input ligand: microRNA oligo, concentration not stated) | apparent KD of MS2 coat protein ([3]; input ligand: none)
AAACGUUGAGGAUAUACGAAAAAGGGUAGGUCAAAAAAAACACAUGAGGAUCACCCAUGUAGAAGGCAACGAAA [Similarities v.1 (13nt loop FMN+)] | 71.4 nM | 45.1 nM | – | – | –
AAUAUGUUAGGAUAUGCUGCUCGUCACAAAAGUGAUGAGUAGCAGAAGGAACAUGAGGAUCACCCAUGUAAAGA [JL eternac mod 12] | 31.1 nM | 39 nM | – | – | –
AACAGUACAGGAUAUACAUGAGGAUCACCCAUGUGACAUAAAUAAAACAAAAAUAAAAGUAGAAGGGUACUGGA [Ruby 43] | 28.5 nM | 60 nM | – | – | –
AUGUACCUAGGAUAUACAUGAGGAUCACCCAUGUAUUGGGAGCAAUCCAGUUAAUAUUGUAGAAGGAGGUGAAA [JR_Exc003_Sub317] | 38.1 nM | 65 nM | – | – | –
UACGUAUGAGGAUAUACAAACAGAAAAAUCAGACAUAACUGACAUGAGGAUCACCCAUGUAGAAGGCAUAUACA [JR_Exc002_Sub904] | 25.3 nM | 17.4 nM | – | – | –
CCCUAGUCAGGAUAUACAAACAUGUCAAAAGACGUGAAAAAACAUGAGGAUCACCCAUGUAGAAGGGACUAGGG [Mat - Exclusion 2 - JL mod - D19] | 15.3 nM | 15.2 nM | – | – | –
AAUAUGUAAGGAUAUGCUGCUCGUCACAAAAGUGAUGAGUAGCAGAAGGUACAUGAGGAUCACCCAUGUAAAGA [JL eternac mod 13] | 30.9 nM | 52 nM | – | – | –
AAAACGGCAGGAUAUACAGUUGAGAACUAGACCGAAAAAAAACAUGAGGAUCACCCAUGUAGAAGGGCCAAAAA [Ex2 Malc#8] | 28.4 nM | 32.5 nM | – | – | –
CUCAAGUAAGGAUAUCUAAGAAAAGAAGAGAAAGAAAAGAAAGAGAAGGUACAUGAGGAUCACCCAUGUAAGAA [EteRNA is fun!] | 34.4 nM | 29.9 nM | – | – | –
CCCAUGUCAGGAUAUCAGUAGUAAAAAAAAAAAAUUACUACUGAGAAGGGACAUGAGGAUCACCCAUGUACCUU [EX4 319: Super Stable 19] | 72.1 nM | 68.1 nM | – | – | –
AAUUAGGUAGGAUAUACAUGAGGAUCACCCAUGUGGGAAAAAAACUACGAAAAAGAAUGUAGAAGGACCUAAAA [Mat - Exclusion 3 - Mayanna mod - D104] | 20.3 nM | 96.5 nM | – | – | –
AAAACGCUAGGAUAUACAAAAAAAAAGGGAAAAAAAAAGGGACAUGAGGAUCACCCAUGUAGAAGGAGCAAAAA [Diamond 87] | 68.5 nM | 108 nM | – | – | –
AAAAAAGGAGGAUAUACGUACAUGUCGAAAGACGUGAAGGGACAUGAGGAUCACCCAUGUAGAAGGCUUAAAAA [Mat - Exclusion 2 - JL mod - D70] | 37.2 nM | 22.9 nM | – | – | –
AGGAAACAUGAGGAUCACCCAUGUAAGGAUAUGAGAAAGAAAAGAAAAGAAAGAAGAAUCAGAAGGUACAAGAA [Semerkhet] | 34.4 nM | 89.2 nM | – | – | –
AAAAAACAUGAGGAUCACCCAUGUGAGGAUAUGCGAAACAAAAAAAACAAAAACAAAAGCAGAAGGCACAAAAA [Amethyst 33] | 25 nM | 25.7 nM | – | – | –
AAAACUGGAGGAUAUACAUGAGGAUCACCCAUGUGUGGAUGAGCUGUGUCGGCAUCACGUAGAAGGCCACAAAA [Gilly Gone Silly 38 - Jieux - Exclusion 3] | 34.4 nM | 53.3 nM | – | – | –
AAGAACGGAGGAUAUACAAAAUAAAAGAAAAGAAAGAAAGAACAUGAGGAUCACCCAUGUAGAAGGCCGAAGAA [Sehetepibre Sewesekhtawy] | 20.9 nM | 29 nM | – | – | –
AACAUGUCAGGAUAUGUAGCAAAAGGUGAUCAAAAAAAGCUACAGAAGGGACAUGAGGAUCACCCAUGUAAAAA [Ex4: 934] | 126 nM | 37.1 nM | – | – | –
AAAAAUGGAGGAUAUACAUGAGGAUCACCCAUGUGUGGCCAUACUAUGUGGUCGUCAGGUAGAAGGCCAAAAAA [Gilly Gone Silly 23 - Jieux - Exclusion 3] | 24.9 nM | 178 nM | – | – | –
CAAAGGUGAGGAUAUACGAGGAUAUGACGAAAGUCAUAAAAACAUGAGGAUCACCCAUGUAGAAGGCACCACAA [E2 64% 5] | 27.8 nM | 32.8 nM | – | – | –
AACAUGUCAGGAUAUGUAGCAUGAUACGAAAGUAUCAUGCUACAGAAGGGACAUGAGGAUCACCCAUGUGAUCA [Ex4: 940] | 26.7 nM | 22 nM | – | – | –

Sequence | apparent KD of MS2 coat protein [1] | apparent KD of MS2 coat protein [2] | apparent KD of MS2 coat protein ([3]; input ligand: FMN 200 uM) | apparent KD of MS2 coat protein ([3]; input ligand: microRNA oligo, concentration not stated) | apparent KD of MS2 coat protein ([3]; input ligand: none)
AAGAAGUGAGGAUAUCCAAAAGAAAAGAAAAGAAAAGAAAAGGAGAAGGCACAUGAGGAUCACCCAUGUAAGAA [Ankhkaenre Psamtik III] | 26.3 nM | 28.4 nM | – | – | –
CUCUAGUAAGGAUAUCGAAGAAAAGAAAAGAAAGAAAAGAACGAGAAGGUACAUGAGGAUCACCCAUGUAAGAA [EteRNA is fun!] | 34.5 nM | 19 nM | – | – | –
AAGAACUGAGGAUAUACAUGAAAGAAAGAAAAGAAAAGAAAACAUGAGGAUCACCCAUGUAGAAGGCAGAAGAA [EteRNA is fun!] | 16.9 nM | 14.4 nM | – | – | –
GGGUCACAUGAGGAUCACCCAUGUAAGGAUAUGCUAGGGAUGGAAACCAUUCCGCAACGCAGAAGGUACUAAAG [Janelle Amethyst 18 Mod 12 - Jieux - Exclusion 1] | 50.4 nM | 105 nM | – | – | –
AAUAACAGAGGAUAUGCGAAAAUAAGCGGAAACGCAAAGGGACAUGAGGAUCACCCAUGUAGAAGGCUGGAUAA [Tetraloop... 61% 1] | 34.4 nM | 29.5 nM | – | – | –
AAAACGGCAGGAUAUACAGAUGAGAUCUCGACCGAAAAAAAACAUGAGGAUCACCCAUGUAGAAGGGCCAAAAA [Ex2 Malc#5] | 30.1 nM | 60.9 nM | – | – | –
AAAAAACAUGAGGAUCACCCAUGUGAGGAUAUCGGUAGUGAGGCUAUAGUGUCAGUAAUGAGAAGGCACAUAAA [Brourd 613 Mod 11 - Jieux - Exclusion 1] | 24.6 nM | 29.7 nM | – | – | –
AAAAAGAGAGGAUAUACAUGAGGAUCACCCAUGUGAAAGACGAAAAAAAGUCUAAAAAGUAGAAGGCUCAAAAA [65%, Moding Exclusion3-cac2, 12] | 17.1 nM | 22.5 nM | – | – | –
AAAAAGGGAGGAUAUACAUGAGGAUCACCCAUGUAAAAAAUCGCGGGAGGGAGGGAAGGUAGAAGGCCCAAAAA [Excls3-V] | 20.1 nM | 15.5 nM | – | – | –
AAGAGUAGAGGAUAUACAUGAGGAUCACCCAUGUAAUCCAGAUAAGGAAGCAUGUCGUGUAGAAGGCUGCAUGA [MOD 2 of Nando (MS2 Riboswitches- Exclusion 3)] | 15.9 nM | 14.4 nM | – | – | –
AAAUUGUCAGGAUAUCGUAGAAUAGUGAAAAACUAGAGCUACGAGAAGGGACAUGAGGAUCACCCAUGUAAAAC [May 92] | 43.3 nM | 54.4 nM | – | – | –
AAGAAGUCAGGAUAUGCUUGUCGUCACAAAAGUGAUGACGAGCAGAAGGGACAUGAGGAUCACCCAUGUAAAGA [JL eternac mod 1] | 42.1 nM | 41.9 nM | – | – | –
AAAAAGGGAGGAUAUACAUGAGGAUCACCCAUGUAAAACAAAAAAACAAAAAAAAAAAGUAGAAGGCCCAAAAA [Default title] | 30 nM | 24.6 nM | – | – | –
AAAGGACGAGGAUAUACAUGAGGAUCACCCAUGUAAAAAACAUAAAAAAAGAACUUAUGUAGAAGGCGUCCAAA [69%, Moding Meechl, 3] | 52.7 nM | 399 nM | – | – | –
AACAGUACAGGAUAUACAUGAGGAUCACCCAUGUGAGAAUUAAAAGGCGUACCUAAAUGUAGAAGGGUACUGGA [JL Maslow Revisted mod 19] | 56.3 nM | 61.8 nM | – | – | –
AUAAACUGAGGAUAUACAUGAGGAUCACCCAUGUAAAAAAAAAAAAGUUCCUCAAAAAGUAGAAGGCAGAAUAA [JR_Exc003_Sub013] | 13.2 nM | 19.4 nM | – | – | –
AAAAAACAUGAGGAUCACCCAUGUCAGGAUAUCUGUAUUCAAUCCUCGGAUUGAAUACAGAGAAGGGAUAUGAA [Ex1: 604] | 42.2 nM | 62.2 nM | – | – | –
AAUAUCGGAGGAUAUGCAUAGAUAAAGAACCAUGUUAAAACACAUGAGGAUCACCCAUGUAGAAGGCCGAUAAA [AJ 9] | 54.1 nM | 77.5 nM | – | – | –
AAAAAGGUAGGAUAUACAUGAGGAUCACCCAUGUAAAAAAACGCAGAAAAAAACAAUUGUAGAAGGGCCAAAAA [Ex3 Malc#6] | 15.9 nM | 10.6 nM | – | – | –
AAAAAGGCAGGAUAUACAUGAGGAUCACCCAUGUUAAAAAAAAAAAAAAAAAAAAAGUGUAGAAGGGCCAAAAA [Default title] | 37.4 nM | 47.6 nM | – | – | –
CCGGUAUAUGGAGGAUAUGGAGCCUUAUUGGCUCCAGAAGGCUAAUAACAUGAGGAUCACCCAUGUCCGGCGGUCAAUAGACCG [Eli NG1ss - 59] (Eterna round: R96, puzzle: Same State NG 1) | – | – | 66.7 nM | 113 nM | 336 nM
